Positions count from the first letter of the chain named. Names and notes keep the numbering of the source. Like-named read-outs stand apart in the source and are kept apart here.
Experiments:
[1] = target: the molecule itself; test: sedimentation assay of polymers
[2] = target: the molecule itself; test: sedimentation assay of polymers; remark: listed apart in the source

B1: FtsZ (wild type, Escherichia coli) (natural protein, E. coli, UniProt P0A9A6 1-383, looked up)
chain: MFEPMELTNDAVIKVIGVGGGGGNAVEHMVRERIEGVEFFAVNTDAQALRKTAVGQTIQIGSGITKGLGAGANPEVGRNAADEDRDALRAALEGADMVFIAAGMGGGTGTGAAPVVAEVAKDLGILTVAVVTKPFNFEGKKRMAFAEQGITELSKHVDSLITIPNDKLLKVLGRGISLLDAFGAANDVLKGAVQGIAELITRPGLMNVDFADVRTVMSEMGYAMMGSGVASGEDRAEEAAEMAISSPLLEDIDLSGARGVLVNITAGFDLRLDEFETVGNTIRAFASDNATVVIGTSLDPDMNDELRVTVVATGIGMDKRPEITLVTNKQVQQPVMDRYQQHGMAPLTQEQKPVAKVVNDNAPQTAKEPDYLDIPAFLRKQAD
B1: binds [1].

B2: FtsZ_(L169R) (Escherichia coli FtsZ with the L169R lesion) (natural protein, E. coli, UniProt P0A9A6 1-383, looked up)
chain: B1 chain with L169R
B2: binds [2].

From PMC4641749 (Molecular microbiology, 2015)
